± gives the standard deviation of the averaged measurements.
What follows are sequences tested on ATP (assay: switch fluorescence ratio, 500 uM ATP over buffer (Cy3 cluster intensity, sum of 5 cycles each) (fold (ratio)); higher = stronger signal-on switching upon ATP binding; sequences stand for … in TCGTCGGCAGCGTCAGATGTGTATAAGAGACAGTTTTTTTTTTTTTTTTTTTTTTTTT…TC). Conditions: aptamer strand: ATP DNA aptamer (quencher-CACCTGGGGGAGTATTGCGGAGGAAGG + anchor), 100 nM annealed; ATP concentration: 500 uM.
Summary of the method: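 The quencher-labelled ATP aptamer, at 100 nM, was annealed to Cy3-labelled switching-strand clusters on a modified Illumina MiSeq flow-cell. The clusters were imaged in selection buffer, then after 15 min with 500 uM ATP at 22 °C, and this buffer/ATP cycle ran five times with NaOH stripping and re-annealing between runs. Per-cluster fluorescence ratios, summed target-cycle over summed buffer-cycle Cy3 intensity, were averaged per switch-domain sequence. Clusters outside 100-1000 RFU were excluded.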
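Note: ATP exposure 15 min at 22 °C before imaging.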

| Sequence | switch fluorescence ratio |
| --- | --- |
| AAACTTAGC | 1.03 ± 0.065 |
| GGCTTTCCTG | 1.1 ± 0.089 |
| TAGGGGGCAG | 1 ± 0.033 |
| GTAACGGCCG | 1.16 ± 0.18 |
| AGATTGTGCT | 0.975 ± 0.046 |
| TTAGGACTGG | 0.992 ± 0.0054 |
| GGTGTCTGGG | 0.984 ± 0.074 |
| CGAGATTGGT | 0.973 ± 0.016 |
| GCTTGACG | 1.004 ± 0.01 |
| ATGCCCTTCG | 1.04 ± 0.013 |
| ATATTATTCT | 1.005 ± 0.0096 |
| GCTGGTTAGG | 1 ± 0.032 |
| GTTACTGGAC | 1.12 ± 0.14 |
| GGGCCGCGCT | 0.942 ± 0.039 |
| TGGGAAGAGC | 1.025 ± 0.0038 |
| TTACGCTACT | 1.802 ± 0.0047 |
| TTTATGGGCG | 1.34 ± 0.64 |
| TTTAAACCCT | 1.03 ± 0.024 |
| TGTAGTTGGT | 1.014 ± 0.0096 |
| GCTGGTTCTG | 0.982 ± 0.054 |
| AGTAATACGG | 1.3 ± 0.29 |
| CTTGTGGCGG | 0.97 ± 0.0098 |

| Sequence | switch fluorescence ratio |
| --- | --- |
| TTACGGGGTA | 1 ± 0.011 |
| CAGAGAGTTA | 0.984 ± 0.024 |
| GGGGTTTTTG | 0.995 ± 0.029 |
| ACAGGGGGAG | 0.983 ± 0.024 |
| TAAGGAAGTT | 1.009 ± 0.0096 |
| TTACGGCCTT | 1.06 ± 0.012 |
| GCAGGCGTTG | 0.995 ± 0.013 |
| TGTTGGTATG | 0.976 ± 0.038 |
| AATTATCATC | 1.02 ± 0.013 |
| CAGGGCCCTG | 0.995 ± 0.056 |
| GAGTGGAAGC | 0.964 ± 0.051 |
| AATCATAGGG | 1.011 ± 0.0087 |
| AAGGCACCTG | 1.03 ± 0.042 |
| ATTCGCGGAA | 1.02 ± 0.029 |
| ACTTGGTCTT | 0.974 ± 0.03 |
| AGGGAGATAG | 0.986 ± 0.016 |
| GCAGAGGAAC | 1.03 ± 0.012 |
| AAAGGGGGTG | 1.02 ± 0.047 |
| TAGGGGTTTT | 1.01 ± 0.024 |
| TGGCCCGGGC | 1.02 ± 0.017 |
| TGTTACGGAG | 1.009 ± 0.0042 |
| CTTAAAGGCC | 0.984 ± 0.026 |

| Sequence | switch fluorescence ratio |
| --- | --- |
| GGTGTTTGAC | 0.999 ± 0.011 |
| TGACTACCAT | 1.07 ± 0.08 |
| GATTTAACGA | 0.985 ± 0.014 |
| TGCGAGTATC | 1.02 ± 0.018 |
| GGTGTGGTGC | 1.02 ± 0.012 |
| TAATGATGAG | 0.987 ± 0.028 |
| GCGTTTAGAA | 0.987 ± 0.036 |
| CCAAAGATTG | 0.993 ± 0.064 |
| GTTCAAAGGT | 0.96 ± 0.032 |
| AAAGCTGTAG | 1.02 ± 0.038 |
| GAAATTGGTT | 0.988 ± 0.067 |
| GGGATTTGTA | 1.02 ± 0.017 |
| GAGATTGGGT | 1.001 ± 0.0077 |
| GAAACCGTGG | 1.06 ± 0.019 |
| GCTATTTAGG | 1 ± 0.024 |
| TGATAATATT | 0.992 ± 0.011 |
| GATTATAAGA | 0.989 ± 0.033 |
| TTGACTAT | 1.005 ± 0.0027 |
| CATTGAATGG | 1 ± 0.015 |
| TAAAGCTTTT | 1.09 ± 0.16 |
| TGCCTATGGG | 0.977 ± 0.029 |
| GATAGTATGT | 0.981 ± 0.023 |

| Sequence | switch fluorescence ratio |
| --- | --- |
| TGCTGGATGG | 0.975 ± 0.032 |
| ATGAGCTGAG | 1.01 ± 0.035 |
| GTTTGAATTG | 0.9879 ± 0.0049 |
| GGTTTTTTGC | 1.01 ± 0.04 |
| CTGTGAGGGC | 0.991 ± 0.037 |
| AGGATGTTAT | 1 ± 0.016 |
| GTTCTGCAAT | 3.97 ± 0.11 |
| ATTTTTGGTC | 0.9864 ± 0.0038 |
| GTGAACAGCA | 1.01 ± 0.025 |
| GGGATAAGAA | 0.992 ± 0.02 |
| CAAATTTGGT | 0.993 ± 0.032 |
| GGGCTGTTGC | 1.08 ± 0.13 |
| CTTAGGAAAG | 0.98833 ± 0.00059 |
| AGGGCAGGTA | 1 ± 0.015 |
| GGGAAACAAT | 1.55 ± 0.91 |
| TAGGTATATC | 0.9843 ± 0.006 |
| ATTTGTTGAT | 1 ± 0.021 |
| CTGAGCCGGA | 1.08 ± 0.16 |
| AGCAATTTTT | 1.1 ± 0.034 |

From the supplement of paper PMC10126150
